Reference: the supplement of paper PMC10567573

B1: TRIM55 (parent)
chain: ICPICLEMFTKPVVILPCQHNLCR

Variants of: B1
Assay: protein stability index of a GFP-peptide fusion (GPS, HEK-293T) (PSI 1-6); higher = more stable
Conditions: c terminus: a fixed tail appended
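Also: lentivirally expressed fusions sorted by FACS into six bins by GFP to DsRed ratio, PSI derived from sequencing read proportions per bin multiplied by bin number.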

Variant | protein stability index
ICPICLEMFTKPVVILPCQHNLCV | 1.83
ICPICLEMFTKPVVILPCQHNLCL | 2.11
ICPICLEMFTKPVVILPCQHNLCY | 2.13
ICPICLEMFTKPVVILPCQHNLCT | 2.71
ICPICLEMFTKPVVILPCQHNLCP | 2.32
ICPICLEMFTKPVVILPCQHNLCD | 2.27
ICPICLEMFTKPVVILPCQHNLCQ | 2.57
ICPICLEMFTKPVVILPCQHNLCS | 1.85
ICPICLEMFTKPVVILPCQHNLCM | 2.15
ICPICLEMFTKPVVILPCQHNLCK | 2.32
ICPICLEMFTKPVVILPCQHNLCI | 2.24
ICPICLEMFTKPVVILPCQHNLCG | 2.41
ICPICLEMFTKPVVILPCQHNLCF | 2.01
ICPICLEMFTKPVVILPCQHNLCE | 2.11
ICPICLEMFTKPVVILPCQHNLCW | 2.35
ICPICLEMFTKPVVILPCQHNLCN | 2.95
ICPICLEMFTKPVVILPCQHNLCA | 1.92
ICPICLEMFTKPVVILPCQHNLCH | 2.4
ICPICLEMFTKPVVILPCQHNLCC | 2.27
ICPICLEMFTKPVVILPCQHNLMR | 2.43
ICPICLEMFTKPVVILPCQHNLPR | 2.24
ICPICLEMFTKPVVILPCQHNLVR | 2.46
ICPICLEMFTKPVVILPCQHNLHR | 2.92
ICPICLEMFTKPVVILPCQHNLGR | 2.01

Variant | protein stability index
ICPICLEMFTKPVVILPCQHNLTR | 2.64
ICPICLEMFTKPVVILPCQHNLWR | 2.05
ICPICLEMFTKPVVILPCQHNLSR | 1.93
ICPICLEMFTKPVVILPCQHNLER | 2.65
ICPICLEMFTKPVVILPCQHNLLR | 2.28
ICPICLEMFTKPVVILPCQHNLKR | 2.03
ICPICLEMFTKPVVILPCQHNLDR | 1.97
ICPICLEMFTKPVVILPCQHNLFR | 1.73
ICPICLEMFTKPVVILPCQHNLQR | 2.21
ICPICLEMFTKPVVILPCQHNLIR | 1.82
ICPICLEMFTKPVVILPCQHNLYR | 2.25
ICPICLEMFTKPVVILPCQHNLRR | 2.47
ICPICLEMFTKPVVILPCQHNLAR | 1.72
ICPICLEMFTKPVVILPCQHNLNR | 2.13
ICPICLEMFTKPVVILPCQINLCR | 1.45
ICPICLEMFTKPVVILPCQLNLCR | 1.91
ICPICLEMFTKPVVILPCQVNLCR | 1.34
ICPICLEMFTKPVVILPCQMNLCR | 1.54
ICPICLEMFTKPVVILPCQDNLCR | 2.14
ICPICLEMFTKPVVILPCQSNLCR | 2.12
ICPICLEMFTKPVVILPCQCNLCR | 2.23
ICPICLEMFTKPVVILPCQPNLCR | 2.23
ICPICLEMFTKPVVILPCQFNLCR | 2.77
ICPICLEMFTKPVVILPCQGNLCR | 2.08

Variant | protein stability index
ICPICLEMFTKPVVILPCQYNLCR | 1.52
ICPICLEMFTKPVVILPCQRNLCR | 1.45
ICPICLEMFTKPVVILPCQTNLCR | 1.54
ICPICLEMFTKPVVILPCQNNLCR | 1.88
ICPICLEMFTKPVVILPCQKNLCR | 1.87
ICPICLEMFTKPVVILPCQENLCR | 1.68
ICPICLEMFTKPVVILPCQANLCR | 2.22
ICPICLEMFTKPVVILPCQWNLCR | 1.27
ICPICLEMFTKPVVILPCQQNLCR | 2.2
ICPICLEMFTKPVVILPGQHNLCR | 2.26
ICPICLEMFTKPVVILPTQHNLCR | 1.98
ICPICLEMFTKPVVILPMQHNLCR | 2.16
ICPICLEMFTKPVVILPLQHNLCR | 1.77
ICPICLEMFTKPVVILPKQHNLCR | 1.89
ICPICLEMFTKPVVILPSQHNLCR | 2.23
ICPICLEMFTKPVVILPVQHNLCR | 1.91
ICPICLEMFTKPVVILPRQHNLCR | 1.45
ICPICLEMFTKPVVILPQQHNLCR | 2.19
ICPICLEMFTKPVVILPWQHNLCR | 1.95
ICPICLEMFTKPVVILPYQHNLCR | 1.79
ICPICLEMFTKPVVILPEQHNLCR | 2.48
ICPICLEMFTKPVVILPHQHNLCR | 2.27
ICPICLEMFTKPVVILPIQHNLCR | 2.02
ICPICLEMFTKPVVILPDQHNLCR | 2.53

Variant | protein stability index
ICPICLEMFTKPVVILPNQHNLCR | 1.81
ICPICLEMFTKPVVILPPQHNLCR | 2.11
ICPICLEMFTKPVVILPFQHNLCR | 1.89
ICPICLEMFTKPVVILPAQHNLCR | 1.75
ICPICLEMFTKPVVILPCYHNLCR | 2.31
ICPICLEMFTKPVVILPCKHNLCR | 2.01
ICPICLEMFTKPVVILPCMHNLCR | 2.15
ICPICLEMFTKPVVILPCIHNLCR | 2.68
ICPICLEMFTKPVVILPCNHNLCR | 2.34
ICPICLEMFTKPVVILPCDHNLCR | 2.54
ICPICLEMFTKPVVILPCSHNLCR | 2.23
ICPICLEMFTKPVVILPCFHNLCR | 2.05
ICPICLEMFTKPVVILPCEHNLCR | 2.28
ICPICLEMFTKPVVILPCVHNLCR | 2.18
ICPICLEMFTKPVVILPCTHNLCR | 1.98
ICPICLEMFTKPVVILPCHHNLCR | 2.09
ICPICLEMFTKPVVILPCPHNLCR | 2.12
ICPICLEMFTKPVVILPCRHNLCR | 2.25
ICPICLEMFTKPVVILPCLHNLCR | 1.84
ICPICLEMFTKPVVILPCGHNLCR | 2.85
ICPICLEMFTKPVVILPCAHNLCR | 2.05
ICPICLEMFTKPVVILPCCHNLCR | 1.98
